Source: publication PMC7948479, “Allostery in the nitric oxide dioxygenase mechanism of flavohemoglobin” (The Journal of Biological Chemistry, 2020)
Read-outs that look alike come from different tables or passages of the source.

Key:
[1] = tested on: E. coli flavoHb-NOD; type: biochemical, Escherichia coli; conditions: for Ki: NO competitive with O2; for K3: NO passage through gate, apparent Km(NO); for Kii(NO): NO uncompetitive inhibition; for K2: O2 displacement of LeuE11; for k'NOD app: calculated from Vmax/K3; for k'NOD: calculated from Vmax/K4; for K4: reaction of NO with Fe^3+O2^−; for KT: trigger step equilibrium constant
Excerpt: (§1) We have formulated a steady-state velocity equation for the catalytic cycle with the activating trigger step (KT) (Equation 1).(1) v= Vmax(a) where a=([NO]^2[O2]^2/K1K2K3KTK4)/(1+([O2]/K1)+([O2]^2/K1K2)+(([O2]^2[NO])/K1K2K3)+(([O2]^2[NO])/K1K2K3KT)+(([O2]^2[NO]^2)/K1K2K3KTK4))
(§2) (2) v= Vmax(a)(b) where b=[NO]/(K3+([NO](1+((K2/[O2])(1+([NO]/Ki(NO)))))))
(§3) In addition, we have introduced a factor and equilibrium constant Ka(O2) for rare situations in which O2 causes an additional NO-independent activation of catalysis possibly by occupying unique binding sites or cavities (Equation 5).
(§4) NOD activity was measured amperometrically in 100 mM phosphate buffer, pH 7.0, containing 0.3 mM EDTA, 100 μg/ml bovine serum albumin (BSA) (Fraction V), 100 μM NADH, 0.1 μM FAD with NO, O2, and N2 mixtures added as described ([4], [72]). NADH oxidase activity was followed spectrophotometrically at 340 nm in a 1.0-ml cuvette containing 90 mM Tris chloride buffer, pH 8.2, 100 μM NADH, 200 μM O2, 0.1 μM FAD, 100 μg/ml BSA, and 0.3 mM EDTA and incubated at 37 °C. Cytochrome b5 reductase activity was assayed at 37 °C by following the rate of absorbance increase at 555 nm in a 1.0-ml reaction buffered with 90 mM Tris chloride, pH 8.2, and containing 10 μM ferric cytochrome b5, 200 μM O2, 20 μM NADH, 0.1 μM FAD, 100 μg/ml BSA, and 0.3 mM EDTA. TMAO reductase activity was assayed by following the absorbance decrease at 340 nm in a 1.0-ml anaerobic reaction containing 12 U Aspergillus niger glucose oxidase, 5 mM glucose, 260 U catalase, 400 mM TMAO, 100 μM NADH, 0.1 μM FAD, 100 μg/ml BSA, and 0.3 mM EDTA in 90 mM Tris chloride pH 8.2 and incubated at 37 °C. Ngb reductase activity was assayed by following the absorbance increase at 424 nm in a 1.0-ml anaerobic reaction containing 12 U glucose oxidase, 5 mM glucose, 260 U catalase, 5 μM Ngb, 50 μM NADH, 0.1 μM FAD, 100 μg/ml BSA, and 0.3 mM EDTA in 90 mM Tris chloride buffer, pH 8.2, and incubated at 37 °C. Methyl viologen reductase activity was assayed by following the formation of the blue cation radical at 603 nm and by applying an extinction coefficient of 13,300 M^−1 cm^−1 in a 1.0-ml anaerobic reaction buffered with 10 mM potassium phosphate, pH 7.0, and containing 12 U glucose oxidase, 5 mM glucose, 260 U catalase, 100 μM NADH, 0.1 μM FAD, 100 μg/ml BSA, 0.3 mM EDTA, and 200 mM sodium chloride and incubated at 37 °C. NO reductase activity was assayed amperometrically at 37 °C in a 1.0-ml anaerobic reaction containing 2 μM NO, 100 μM NADH, 0.1 μM FAD, 12 U glucose oxidase, 5 mM glucose, 260 U catalase, 100 μg/ml BSA, and 0.3 mM EDTA buffered with 10 mM potassium phosphate pH 7.0. CO effects were tested at a final concentration of 50 μM as diluted from a 1 mM stock in water. All activities are reported relative to the heme content of flavoHb.
(§5) Rate constants were estimated from the model kinetic equation using Python programming with successive approximations to optimize fits with varying NO and O2 concentrations. Vmax, K1, K2, KT, and Kii(NO) values were treated as independent variables for a given flavoHb while allowing K3, K4, and Ki(NO) to vary over limited ranges with varying O2 concentration. Kii(NO) was estimated from NO inhibition at saturating O2 concentrations.

[2] = set-up: method as in PMID 10777548, PMID 10922365; conditions: cited from earlier work
[3] = tested on: E. coli flavoHb-NOD; conditions: entry of O2 into the LT, value assumed for fitting, cited from earlier work
[4] = NO reductase activity (anaerobic); type: biochemical
Experimental: (§6) NADH oxidase activity was followed spectrophotometrically at 340 nm in a 1.0-ml cuvette containing 90 mM Tris chloride buffer, pH 8.2, 100 μM NADH, 200 μM O2, 0.1 μM FAD, 100 μg/ml BSA, and 0.3 mM EDTA and incubated at 37 °C. […] TMAO reductase activity was assayed by following the absorbance decrease at 340 nm in a 1.0-ml anaerobic reaction containing 12 U Aspergillus niger glucose oxidase, 5 mM glucose, 260 U catalase, 400 mM TMAO, 100 μM NADH, 0.1 μM FAD, 100 μg/ml BSA, and 0.3 mM EDTA in 90 mM Tris chloride pH 8.2 and incubated at 37 °C. […] Methyl viologen reductase activity was assayed by following the formation of the blue cation radical at 603 nm and by applying an extinction coefficient of 13,300 M^−1 cm^−1 in a 1.0-ml anaerobic reaction buffered with 10 mM potassium phosphate, pH 7.0, and containing 12 U glucose oxidase, 5 mM glucose, 260 U catalase, 100 μM NADH, 0.1 μM FAD, 100 μg/ml BSA, 0.3 mM EDTA, and 200 mM sodium chloride and incubated at 37 °C. NO reductase activity was assayed amperometrically at 37 °C in a 1.0-ml anaerobic reaction containing 2 μM NO, 100 μM NADH, 0.1 μM FAD, 12 U glucose oxidase, 5 mM glucose, 260 U catalase, 100 μg/ml BSA, and 0.3 mM EDTA buffered with 10 mM potassium phosphate pH 7.0. CO effects were tested at a final concentration of 50 μM as diluted from a 1 mM stock in water. […]

[5] = tested on: E. coli flavoHb-NOD
Experimental: as §4

[6] = target: E. coli flavoHb-NOD (Escherichia coli, UniProt P24232); type: biochemical; set-up: made in house; host or cells: E. coli hmp deletion strain AG103 carrying pUC19hmp
Excerpt: as §1, §2, §3, §4, §5

[7] = tested on: E. coli growth; set-up: method as in PMID 11751865; conditions: atmosphere containing 5 μM O2 and 0.5 μM NO; cited from earlier work
[8] = Methyl viologen reductase activity; type: biochemical; conditions: 37 °C; anaerobic
Experimental: as §6

[9] = tested on: ferric cytochrome b5; test: Cytochrome b5 reductase activity; type: biochemical, rat; conditions: 37 °C; 10 μM ferric cytochrome b5
Excerpt: Reagents were purchased from Sigma-Aldrich Chemical Co (St Louis, MO, USA) unless otherwise stated. DNA primers were synthesized at the University of Cincinnati Medical Center DNA facility. Praxair (Bethlehem, PA, USA) was the supplier of 99.993% O2, 99.999% CO, and 99.98% N2. Bovine liver catalase (260,000 U/ml) was obtained from Roche Applied Science. Recombinant rat cytochrome b5 (soluble form) and murine Ngb were expressed in E. coli and purified essentially as described ([10], [70]). NADH purity (≥95%) was assessed by the ratio of the 340 to 260 nm absorbance with a value of 0.437 equal to 100% reduced.

B1: WT: wild-type E. coli flavohemoglobin (flavoHb), an NO dioxygenase (NOD) (protein, UniProt P24232 1-396, looked up)
Flavohemoprotein: MLDAQTIATVKATIPLLVETGPKLTAHFYDRMFTHNPELKEIFNMSNQRNGDQREALFNAIAAYASNIENLPALLPAVEKIAQKHTSFQIKPEQYNIVGEHLLATLDEMFSPGQEVLDAWGKAYGVLANVFINREAEIYNENASKAGGWEGTRDFRIVAKTPRSALITSFELEPVDGGAVAEYRPGQYLGVWLKPEGFPHQEIRQYSLTRKPDGKGYRIAVKREEGGQVSNWLHNHANVGDVVKLVAPAGDFFMAVADDTPVTLISAGVGQTPMLAMLDTLAKAGHTAQVNWFHAAENGDVHAFADEVKELGQSLPRFTAHTWYRQPSEADRAKGQFDSEGLMDLSKLEGAFSDPTMQFYLCGPVGFMQFTAKQLVDLGVKQENIHYECFGPHKVL
Vmax ([1]; 20 °C): 160 NO heme^−1 s^−1
Ki ([1]; 20 °C): 0.3 to 1 µM
K3 ([1]; 20 °C): 0.1–0.4 Micromolar
Kii(NO) ([1]; 20 °C): 10 (10) Micromolar
K2 ([1]; 20 °C): 20 Micromolar
k'NOD app ([1]; 20 °C): 0.4–1.6 10^9 M^−1 s^−1
k'NOD ([1]; 20 °C): 0.5–2.7 10^9 M^−1 s^−1
K4 ([1]; 20 °C): 0.06–0.3 Micromolar
KT ([1]; 20 °C): 0.1 (0.1)
Vmax ([1]; 37 °C): 580 NO heme^−1 s^−1
Ki ([1]; 37 °C): 0.7 to 1.2 µM
K3 ([1]; 37 °C): 0.25 Micromolar
Kii(NO) ([1]; 37 °C): 10 (10) Micromolar
K2 ([1]; 37 °C): 120 Micromolar
k'NOD app ([1]; 37 °C): 2.3 10^9 M^−1 s^−1
k'NOD ([1]; 37 °C): 9.7–19 10^9 M^−1 s^−1
K4 ([1]; 37 °C): 0.03–0.06 Micromolar
KT ([1]; 37 °C): 0.1 (0.1)
overall activation energy (Ea) ([1]; Arrhenius equation for Vmax at 37 and 20 °C): ~57.3 kJ/mol
NO elimination via reduction [2]: ≤ 0.1 s⁻¹
Vmax for Fe^2+NO reduction [2]: 0.1 s⁻¹
K1 ([3]; 20 °C): 2 (2) Micromolar
K1 ([3]; 37 °C): 2 (2) Micromolar
NO reductase activity ([4]; 37 °C, 2 μM NO, anaerobic): 0.19 s⁻¹
time for 90% reversal in the steady state ([4]; with NO elimination via reduction): 23 s
Δv/Δ[NADH] ([5]; 20 °C): 36 s⁻¹ µM⁻¹
Δv/Δ[NADH] ([5]; 20 °C, 130 nM NO): 30 s⁻¹ µM⁻¹
Δv/Δ[NADH] ([5]; 37 °C): 59 s⁻¹ µM⁻¹
Δv/Δ[NADH] ([5]; 37 °C, 130 nM NO): 59 s⁻¹ µM⁻¹
Vmax/K3 [6]: 2.3e+09 M⁻¹ s⁻¹
bimolecular rate constant of ferric–superoxide complex with internalized NO [6]: 10^10 M^−1 s^−1
k'NOD estimated from the Vmax/K4 ratio [6]: 1 to 2 × 10^10 M^−1 s^−1
velocity of NOD activity [6]: 8 s⁻¹
Ki ([6]; read-out: Ki(NO) for NO competition with O2 for LT entry): 0.3 to 1.2 µM
protection of E. coli growth [7]: fully protects
methyl viologen reductase activity [8]: 0.36 s^−1
cytochrome b5 reductase activity [9]: 0.14 s⁻¹
